Experimental data as given in patent US20040147436A1.

Experiments:
[1] = test system: T1, dBN(64-53) FVIII derivative
T1 sequence: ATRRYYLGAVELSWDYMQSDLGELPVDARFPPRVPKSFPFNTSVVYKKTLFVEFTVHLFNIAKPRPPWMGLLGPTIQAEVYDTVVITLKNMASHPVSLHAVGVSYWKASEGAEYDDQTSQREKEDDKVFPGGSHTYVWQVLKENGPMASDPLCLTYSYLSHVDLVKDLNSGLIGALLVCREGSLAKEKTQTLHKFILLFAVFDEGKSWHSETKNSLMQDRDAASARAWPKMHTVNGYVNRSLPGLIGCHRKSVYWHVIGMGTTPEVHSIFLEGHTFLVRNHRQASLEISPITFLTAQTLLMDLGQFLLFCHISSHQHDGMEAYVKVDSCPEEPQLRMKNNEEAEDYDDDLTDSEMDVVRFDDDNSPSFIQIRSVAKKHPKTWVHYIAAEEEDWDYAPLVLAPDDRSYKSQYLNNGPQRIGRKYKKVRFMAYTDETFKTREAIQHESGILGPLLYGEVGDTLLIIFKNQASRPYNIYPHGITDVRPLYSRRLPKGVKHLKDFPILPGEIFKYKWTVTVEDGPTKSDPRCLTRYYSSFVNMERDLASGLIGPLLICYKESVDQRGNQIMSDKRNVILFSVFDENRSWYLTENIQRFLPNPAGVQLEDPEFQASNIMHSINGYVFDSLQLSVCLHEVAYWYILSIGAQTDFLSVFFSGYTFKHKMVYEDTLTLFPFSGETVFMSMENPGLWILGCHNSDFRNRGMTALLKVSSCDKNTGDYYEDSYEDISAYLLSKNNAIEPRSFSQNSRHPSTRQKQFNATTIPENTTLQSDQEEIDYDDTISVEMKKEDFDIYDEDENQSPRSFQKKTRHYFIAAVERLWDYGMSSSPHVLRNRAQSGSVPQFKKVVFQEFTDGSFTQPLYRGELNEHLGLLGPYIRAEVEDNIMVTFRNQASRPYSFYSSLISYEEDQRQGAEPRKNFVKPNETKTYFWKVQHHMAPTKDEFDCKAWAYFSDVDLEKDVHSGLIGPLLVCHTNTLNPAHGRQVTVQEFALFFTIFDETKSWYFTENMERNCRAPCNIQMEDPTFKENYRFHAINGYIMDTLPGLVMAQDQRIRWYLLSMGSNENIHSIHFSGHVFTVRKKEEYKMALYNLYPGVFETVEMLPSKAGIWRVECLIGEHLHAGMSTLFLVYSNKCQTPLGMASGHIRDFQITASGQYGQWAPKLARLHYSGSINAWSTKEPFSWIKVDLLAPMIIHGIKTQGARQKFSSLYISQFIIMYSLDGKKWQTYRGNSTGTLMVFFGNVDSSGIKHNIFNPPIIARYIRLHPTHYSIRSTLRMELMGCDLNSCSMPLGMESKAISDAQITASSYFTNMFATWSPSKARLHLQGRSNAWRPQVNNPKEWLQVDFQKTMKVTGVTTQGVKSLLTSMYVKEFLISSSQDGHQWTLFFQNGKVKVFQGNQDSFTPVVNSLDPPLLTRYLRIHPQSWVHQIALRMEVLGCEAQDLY

[2] = test system: T2, dBN(64-56) FVIII derivative
T2 sequence: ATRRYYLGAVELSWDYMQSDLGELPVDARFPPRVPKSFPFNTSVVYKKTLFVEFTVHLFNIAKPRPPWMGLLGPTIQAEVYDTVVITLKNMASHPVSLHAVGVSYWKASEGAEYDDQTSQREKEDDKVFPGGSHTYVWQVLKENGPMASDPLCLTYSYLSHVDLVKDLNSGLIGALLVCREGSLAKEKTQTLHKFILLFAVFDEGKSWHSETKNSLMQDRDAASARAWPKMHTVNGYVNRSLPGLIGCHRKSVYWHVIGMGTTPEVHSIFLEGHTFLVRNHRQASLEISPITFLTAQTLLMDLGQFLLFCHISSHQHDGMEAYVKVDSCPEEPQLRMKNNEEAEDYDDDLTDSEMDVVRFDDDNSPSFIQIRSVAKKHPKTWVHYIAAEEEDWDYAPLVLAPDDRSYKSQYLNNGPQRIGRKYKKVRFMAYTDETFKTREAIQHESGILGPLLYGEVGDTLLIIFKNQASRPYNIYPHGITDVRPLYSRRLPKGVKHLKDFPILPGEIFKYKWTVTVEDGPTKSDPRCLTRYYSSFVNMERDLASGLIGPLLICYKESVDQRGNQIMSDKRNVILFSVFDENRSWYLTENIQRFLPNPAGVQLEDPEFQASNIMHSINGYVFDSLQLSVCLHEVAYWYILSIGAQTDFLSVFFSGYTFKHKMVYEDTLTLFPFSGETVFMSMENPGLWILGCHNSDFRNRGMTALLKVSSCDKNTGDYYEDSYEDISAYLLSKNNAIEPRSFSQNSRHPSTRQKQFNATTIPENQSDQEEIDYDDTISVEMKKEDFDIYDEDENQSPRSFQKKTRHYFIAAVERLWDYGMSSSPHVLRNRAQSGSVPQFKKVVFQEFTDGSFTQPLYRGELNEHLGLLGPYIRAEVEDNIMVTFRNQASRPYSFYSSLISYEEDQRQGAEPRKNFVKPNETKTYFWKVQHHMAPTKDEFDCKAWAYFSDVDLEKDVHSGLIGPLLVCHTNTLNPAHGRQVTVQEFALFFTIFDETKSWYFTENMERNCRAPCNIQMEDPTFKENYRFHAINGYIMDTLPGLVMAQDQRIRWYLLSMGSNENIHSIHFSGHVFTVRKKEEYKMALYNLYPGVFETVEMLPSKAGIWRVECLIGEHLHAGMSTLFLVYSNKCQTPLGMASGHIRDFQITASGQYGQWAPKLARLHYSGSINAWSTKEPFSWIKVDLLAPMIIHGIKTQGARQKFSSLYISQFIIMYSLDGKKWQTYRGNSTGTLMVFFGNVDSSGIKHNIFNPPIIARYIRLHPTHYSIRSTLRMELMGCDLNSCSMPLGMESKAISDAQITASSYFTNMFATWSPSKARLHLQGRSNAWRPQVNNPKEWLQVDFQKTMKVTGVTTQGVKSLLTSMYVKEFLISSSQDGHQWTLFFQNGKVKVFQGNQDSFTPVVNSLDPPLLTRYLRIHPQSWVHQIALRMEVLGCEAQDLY

Some FVIII derivatives = assay: cell-based or functional assay

Substance | thrombin cleavage of 35S-labeled immunoprecipitated protein, SDS-PAGE (FVIII derivatives) | activation by thrombin, measured in a classical coagulation test (APTT) [1] | activation by thrombin, measured in a classical coagulation test (APTT) [2] | activation by thrombin, measured in a classical coagulation test (APTT) (Some FVIII derivatives) [fold]
thrombin | Analysis of the radiolabeled protein after thrombin digestion indicated a normal appearance of the 73 kD, and 50 and 40 kd fragments | are activated in the same manner as rh FVIII | are activated in the same manner as rh FVIII | –
thrombin (enzyme) | – | – | – | 7
